Reference: patent US20100272723A1 (Xencor, published 2010)

T1: human CD19 (human, UniProt P15391 20-556)
T1 construct: also called B-cell surface antigen B4; B-cell antigen CD19
T1 sequence: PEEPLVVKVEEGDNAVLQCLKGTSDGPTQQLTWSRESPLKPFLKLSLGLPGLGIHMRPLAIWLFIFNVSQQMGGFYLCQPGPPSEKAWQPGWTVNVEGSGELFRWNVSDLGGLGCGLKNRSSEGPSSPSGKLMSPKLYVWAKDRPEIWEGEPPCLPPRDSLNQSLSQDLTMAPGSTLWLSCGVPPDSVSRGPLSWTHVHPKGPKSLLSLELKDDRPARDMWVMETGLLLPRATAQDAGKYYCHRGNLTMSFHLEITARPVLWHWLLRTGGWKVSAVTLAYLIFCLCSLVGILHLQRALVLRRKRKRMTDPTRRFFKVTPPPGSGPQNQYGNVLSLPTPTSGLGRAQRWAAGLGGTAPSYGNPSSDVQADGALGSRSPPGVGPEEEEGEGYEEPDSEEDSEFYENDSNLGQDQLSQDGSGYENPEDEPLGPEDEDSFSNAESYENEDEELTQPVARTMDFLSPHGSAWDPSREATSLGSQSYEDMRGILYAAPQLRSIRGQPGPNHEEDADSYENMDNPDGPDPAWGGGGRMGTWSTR


Target: T1, human CD19
Test: binding affinity relative to the parent H1L1 mAb (Example 5); assay and format not named on the sheet

Binder | Fold change binding [fold]
H1.52 / L1 (antibody, V domains shown, vs H1L1 (Kabat): VH S100cT; also called 4G7 H1.52_L1) VH: EVQLVESGGGLVKPGGSLKLSCAASGYTFTSYVMHWVRQAPGKGLEWIGYINPYNDGTKYNEKFQGRVTISSDKSISTAYMELSSLRSEDTAMYYCARGTYYYGTRVFDYWGQGTLVTVSS VL: DIVMTQSPATLSLSPGERATLSCRSSKSLLNSNGNTYLYWFQQKPGQSPQLLIYRMSNLASGVPDRFSGSGSGTEFTLTISSLEPEDFAVYYCMQHLEYPFTFGAGTKLEIK | 3.22
H1.147 / L1 (antibody, V domains shown, vs H1L1 (Kabat): VH D101S; also called 4G7 H1.147_L1) VH: EVQLVESGGGLVKPGGSLKLSCAASGYTFTSYVMHWVRQAPGKGLEWIGYINPYNDGTKYNEKFQGRVTISSDKSISTAYMELSSLRSEDTAMYYCARGTYYYGSRVFSYWGQGTLVTVSS VL: DIVMTQSPATLSLSPGERATLSCRSSKSLLNSNGNTYLYWFQQKPGQSPQLLIYRMSNLASGVPDRFSGSGSGTEFTLTISSLEPEDFAVYYCMQHLEYPFTFGAGTKLEIK | 2.65
H1 / L1.124 (antibody, V domains shown, vs H1L1 (Kabat): VL L54W; also called 4G7 H1_L1.124) VH: EVQLVESGGGLVKPGGSLKLSCAASGYTFTSYVMHWVRQAPGKGLEWIGYINPYNDGTKYNEKFQGRVTISSDKSISTAYMELSSLRSEDTAMYYCARGTYYYGSRVFDYWGQGTLVTVSS VL: DIVMTQSPATLSLSPGERATLSCRSSKSLLNSNGNTYLYWFQQKPGQSPQLLIYRMSNWASGVPDRFSGSGSGTEFTLTISSLEPEDFAVYYCMQHLEYPFTFGAGTKLEIK | 1.47
H1.52 / L1.143 (antibody, V domains shown, vs H1L1 (Kabat): VH S100cT; VL L27cQ/A55N; also called 4G7 H1.52_L1.143) VH: EVQLVESGGGLVKPGGSLKLSCAASGYTFTSYVMHWVRQAPGKGLEWIGYINPYNDGTKYNEKFQGRVTISSDKSISTAYMELSSLRSEDTAMYYCARGTYYYGTRVFDYWGQGTLVTVSS VL: DIVMTQSPATLSLSPGERATLSCRSSKSLQNSNGNTYLYWFQQKPGQSPQLLIYRMSNLNSGVPDRFSGSGSGTEFTLTISSLEPEDFAVYYCMQHLEYPFTFGAGTKLEIK | 3.83
H1.52 / L1.138 (antibody, V domains shown, vs H1L1 (Kabat): VH S100cT; VL S27eV/A55N; also called 4G7 H1.52_L1.138) VH: EVQLVESGGGLVKPGGSLKLSCAASGYTFTSYVMHWVRQAPGKGLEWIGYINPYNDGTKYNEKFQGRVTISSDKSISTAYMELSSLRSEDTAMYYCARGTYYYGTRVFDYWGQGTLVTVSS VL: DIVMTQSPATLSLSPGERATLSCRSSKSLLNVNGNTYLYWFQQKPGQSPQLLIYRMSNLNSGVPDRFSGSGSGTEFTLTISSLEPEDFAVYYCMQHLEYPFTFGAGTKLEIK | 3.93
H1.146 / L1 (antibody, V domains shown, vs H1L1 (Kabat): VH D101H; also called 4G7 H1.146_L1) VH: EVQLVESGGGLVKPGGSLKLSCAASGYTFTSYVMHWVRQAPGKGLEWIGYINPYNDGTKYNEKFQGRVTISSDKSISTAYMELSSLRSEDTAMYYCARGTYYYGSRVFHYWGQGTLVTVSS VL: DIVMTQSPATLSLSPGERATLSCRSSKSLLNSNGNTYLYWFQQKPGQSPQLLIYRMSNLASGVPDRFSGSGSGTEFTLTISSLEPEDFAVYYCMQHLEYPFTFGAGTKLEIK | 2.45
H1.113 / L1 (antibody, V domains shown, vs H1L1 (Kabat): VH T57H; also called 4G7 H1.113_L1) VH: EVQLVESGGGLVKPGGSLKLSCAASGYTFTSYVMHWVRQAPGKGLEWIGYINPYNDGHKYNEKFQGRVTISSDKSISTAYMELSSLRSEDTAMYYCARGTYYYGSRVFDYWGQGTLVTVSS VL: DIVMTQSPATLSLSPGERATLSCRSSKSLLNSNGNTYLYWFQQKPGQSPQLLIYRMSNLASGVPDRFSGSGSGTEFTLTISSLEPEDFAVYYCMQHLEYPFTFGAGTKLEIK | 1.29
H1.52 / L1.149 (antibody, V domains shown, vs H1L1 (Kabat): VH S100cT; VL L27cQ/A55N/F96I; also called 4G7 H1.52_L1.149) VH: EVQLVESGGGLVKPGGSLKLSCAASGYTFTSYVMHWVRQAPGKGLEWIGYINPYNDGTKYNEKFQGRVTISSDKSISTAYMELSSLRSEDTAMYYCARGTYYYGTRVFDYWGQGTLVTVSS VL: DIVMTQSPATLSLSPGERATLSCRSSKSLQNSNGNTYLYWFQQKPGQSPQLLIYRMSNLNSGVPDRFSGSGSGTEFTLTISSLEPEDFAVYYCMQHLEYPITFGAGTKLEIK | 8.6
H1.52 / L1.139 (antibody, V domains shown, vs H1L1 (Kabat): VH S100cT; VL S27eV/F96N; also called 4G7 H1.52_L1.139) VH: EVQLVESGGGLVKPGGSLKLSCAASGYTFTSYVMHWVRQAPGKGLEWIGYINPYNDGTKYNEKFQGRVTISSDKSISTAYMELSSLRSEDTAMYYCARGTYYYGTRVFDYWGQGTLVTVSS VL: DIVMTQSPATLSLSPGERATLSCRSSKSLLNVNGNTYLYWFQQKPGQSPQLLIYRMSNLASGVPDRFSGSGSGTEFTLTISSLEPEDFAVYYCMQHLEYPNTFGAGTKLEIK | 1.8
H1.60 / L1 (antibody, V domains shown, vs H1L1 (Kabat): VH S100cL; also called 4G7 H1.60_L1) VH: EVQLVESGGGLVKPGGSLKLSCAASGYTFTSYVMHWVRQAPGKGLEWIGYINPYNDGTKYNEKFQGRVTISSDKSISTAYMELSSLRSEDTAMYYCARGTYYYGLRVFDYWGQGTLVTVSS VL: DIVMTQSPATLSLSPGERATLSCRSSKSLLNSNGNTYLYWFQQKPGQSPQLLIYRMSNLASGVPDRFSGSGSGTEFTLTISSLEPEDFAVYYCMQHLEYPFTFGAGTKLEIK | 1.56
H1.65 / L1 (antibody, V domains shown, vs H1L1 (Kabat): VH R100dS; also called 4G7 H1.65_L1) VH: EVQLVESGGGLVKPGGSLKLSCAASGYTFTSYVMHWVRQAPGKGLEWIGYINPYNDGTKYNEKFQGRVTISSDKSISTAYMELSSLRSEDTAMYYCARGTYYYGSSVFDYWGQGTLVTVSS VL: DIVMTQSPATLSLSPGERATLSCRSSKSLLNSNGNTYLYWFQQKPGQSPQLLIYRMSNLASGVPDRFSGSGSGTEFTLTISSLEPEDFAVYYCMQHLEYPFTFGAGTKLEIK | 1.41
H1.52 / L1.155 (antibody, V domains shown, vs H1L1 (Kabat): VH S100cT; VL L27cQ/S27eV/A55N/F96I; also called 4G7 H1.52_L1.155) VH: EVQLVESGGGLVKPGGSLKLSCAASGYTFTSYVMHWVRQAPGKGLEWIGYINPYNDGTKYNEKFQGRVTISSDKSISTAYMELSSLRSEDTAMYYCARGTYYYGTRVFDYWGQGTLVTVSS VL: DIVMTQSPATLSLSPGERATLSCRSSKSLQNVNGNTYLYWFQQKPGQSPQLLIYRMSNLNSGVPDRFSGSGSGTEFTLTISSLEPEDFAVYYCMQHLEYPITFGAGTKLEIK | 6.16

Now from value to binder:

Fold change binding [fold] | Binder
1.52 | H1.109 / L1 (antibody, V domains shown, vs H1L1 (Kabat): VH T57P; also called 4G7 H1.109_L1) VH: EVQLVESGGGLVKPGGSLKLSCAASGYTFTSYVMHWVRQAPGKGLEWIGYINPYNDGPKYNEKFQGRVTISSDKSISTAYMELSSLRSEDTAMYYCARGTYYYGSRVFDYWGQGTLVTVSS VL: DIVMTQSPATLSLSPGERATLSCRSSKSLLNSNGNTYLYWFQQKPGQSPQLLIYRMSNLASGVPDRFSGSGSGTEFTLTISSLEPEDFAVYYCMQHLEYPFTFGAGTKLEIK
4.18 | H1.52 / L1.160 (antibody, V domains shown, vs H1L1 (Kabat): VH S100cT; VL L27cQ/S27eV/G29A/A55N/F96I; also called 4G7 H1.52_L1.160) VH: EVQLVESGGGLVKPGGSLKLSCAASGYTFTSYVMHWVRQAPGKGLEWIGYINPYNDGTKYNEKFQGRVTISSDKSISTAYMELSSLRSEDTAMYYCARGTYYYGTRVFDYWGQGTLVTVSS VL: DIVMTQSPATLSLSPGERATLSCRSSKSLQNVNANTYLYWFQQKPGQSPQLLIYRMSNLNSGVPDRFSGSGSGTEFTLTISSLEPEDFAVYYCMQHLEYPITFGAGTKLEIK
2.26 | H1.144 / L1 (antibody, V domains shown, vs H1L1 (Kabat): VH D101N; also called 4G7 H1.144_L1) VH: EVQLVESGGGLVKPGGSLKLSCAASGYTFTSYVMHWVRQAPGKGLEWIGYINPYNDGTKYNEKFQGRVTISSDKSISTAYMELSSLRSEDTAMYYCARGTYYYGSRVFNYWGQGTLVTVSS VL: DIVMTQSPATLSLSPGERATLSCRSSKSLLNSNGNTYLYWFQQKPGQSPQLLIYRMSNLASGVPDRFSGSGSGTEFTLTISSLEPEDFAVYYCMQHLEYPFTFGAGTKLEIK
1.59 | H1 / L1.11 (antibody, V domains shown, vs H1L1 (Kabat): VL E93N; also called 4G7 H1_L1.11) VH: EVQLVESGGGLVKPGGSLKLSCAASGYTFTSYVMHWVRQAPGKGLEWIGYINPYNDGTKYNEKFQGRVTISSDKSISTAYMELSSLRSEDTAMYYCARGTYYYGSRVFDYWGQGTLVTVSS VL: DIVMTQSPATLSLSPGERATLSCRSSKSLLNSNGNTYLYWFQQKPGQSPQLLIYRMSNLASGVPDRFSGSGSGTEFTLTISSLEPEDFAVYYCMQHLNYPFTFGAGTKLEIK
6.02 | H1.191 / L1.149 (antibody, V domains shown, vs H1L1 (Kabat): VH K58E/S100cT; VL L27cQ/A55N/F96I; also called 4G7 H1.191_L1.149) VH: EVQLVESGGGLVKPGGSLKLSCAASGYTFTSYVMHWVRQAPGKGLEWIGYINPYNDGTEYNEKFQGRVTISSDKSISTAYMELSSLRSEDTAMYYCARGTYYYGTRVFDYWGQGTLVTVSS VL: DIVMTQSPATLSLSPGERATLSCRSSKSLQNSNGNTYLYWFQQKPGQSPQLLIYRMSNLNSGVPDRFSGSGSGTEFTLTISSLEPEDFAVYYCMQHLEYPITFGAGTKLEIK
1.65 | H1.62 / L1 (antibody, V domains shown, vs H1L1 (Kabat): VH R100dE; also called 4G7 H1.62_L1) VH: EVQLVESGGGLVKPGGSLKLSCAASGYTFTSYVMHWVRQAPGKGLEWIGYINPYNDGTKYNEKFQGRVTISSDKSISTAYMELSSLRSEDTAMYYCARGTYYYGSEVFDYWGQGTLVTVSS VL: DIVMTQSPATLSLSPGERATLSCRSSKSLLNSNGNTYLYWFQQKPGQSPQLLIYRMSNLASGVPDRFSGSGSGTEFTLTISSLEPEDFAVYYCMQHLEYPFTFGAGTKLEIK
1.14 | H1.78 / L1 (antibody, V domains shown, vs H1L1 (Kabat): VH D55A; also called 4G7 H1.78_L1) VH: EVQLVESGGGLVKPGGSLKLSCAASGYTFTSYVMHWVRQAPGKGLEWIGYINPYNAGTKYNEKFQGRVTISSDKSISTAYMELSSLRSEDTAMYYCARGTYYYGSRVFDYWGQGTLVTVSS VL: DIVMTQSPATLSLSPGERATLSCRSSKSLLNSNGNTYLYWFQQKPGQSPQLLIYRMSNLASGVPDRFSGSGSGTEFTLTISSLEPEDFAVYYCMQHLEYPFTFGAGTKLEIK
6.41 | H1.52 / L1.145 (antibody, V domains shown, vs H1L1 (Kabat): VH S100cT; VL L27cQ/F96I; also called 4G7 H1.52_L1.145) VH: EVQLVESGGGLVKPGGSLKLSCAASGYTFTSYVMHWVRQAPGKGLEWIGYINPYNDGTKYNEKFQGRVTISSDKSISTAYMELSSLRSEDTAMYYCARGTYYYGTRVFDYWGQGTLVTVSS VL: DIVMTQSPATLSLSPGERATLSCRSSKSLQNSNGNTYLYWFQQKPGQSPQLLIYRMSNLASGVPDRFSGSGSGTEFTLTISSLEPEDFAVYYCMQHLEYPITFGAGTKLEIK
